Data taken from PMC5021521, “Coordinated recruitment of Spir actin nucleators and myosin V motors to Rab11 vesicle membranes” (eLife, 2016).

How the values were obtained:
[1] = system: Spir-2:MyoVa:Rab11 tripartite complex; assay: Analytical gel filtration; assay type: binding, Homo sapiens; conditions: Superdex 200 10/30; 50 mM Tris pH 8.0, 150 mM NaCl, 2 mM MgCl2, 2 mM TCEP
Procedure: (§1) Complex formations were analyzed by analytical gel-filtration using Superdex 200 10/30 Increase column (GE Healthcare Life Sciences) and UV light absorbance at 280 nm and 260 nm and Visible light absorbance at 587 nm at flow rate of 0.75 ml/min in 50 mM Tris pH 8.0, 150 mM NaCl, 2 mM MgCl2, 2 mM TCEP buffer. Fractions of 500 µl were collected and analyzed by SDS-PAGE.
(§2) A 100 µl sample of His6-Rab11a-1-173-Q70L at 6 mg/ml, or of MyoVa-GTD at 5 mg/ml or of His6-mCherry-Spir-2-linker at 6 mg/ml were centrifuged at 10,000 x g for 10 min and injected into the column to monitor reference elution profiles of the individual proteins. The proteins were mixed pairwise to the same final concentrations and incubated 30 min at 4°C in a total volume of 100 µl. The two-component complexes (His6-mCherry-Spir-2-linker:MyoVa-GTD and MyoVa-GTD:His6-Rab11a-1-173-Q70L) were confirmed by the elution peak shifts and SDS-PAGE analysis. […] The tripartite His6-mCherry-Spir-2-linker:MyoVa-GTD:His6-Rab11a-1-173-Q70L complex was analyzed at the same concentration of the individual components and confirmed by SDS-PAGE.

[2] = Analytical gel filtration, individual protein; assay type: physicochemical; conditions: Figure 5—figure supplement 2
Procedure: as §1, §2

[3] = target: GST-MyoVa-GTD; assay: Quantitative GST-pulldown, fluorescence spectroscopy, Spir-2-linker; assay type: binding, Mus musculus; conditions: 100 nM His6-mCherry-Spir-2-linker (aa 361–519); SPECS buffer (1x PBS, 50 mM NaCl), 20°C; depletion of mCherry fluorescence (ex 548 nm, em 610 nm); ± SEM, n = 4 experimental repeats; read-out: dissociation constant (Kd)
Procedure: (§3) For GST-pulldown assays, 50 µg of GST-fusion protein was coupled to GSH-Sepharose 4B beads (1:1 suspension) for 1 hr at 4°C on a rotating wheel. Beads were washed twice with pulldown buffer and subsequently incubated with 20 µg His6-mCherry-fusion peptides for 2 hr, 4°C on a rotating wheel. In order to identify the tripartite Spir-2:MyoVa:Rab11a complex, 65 µg GST-Spir-2-GTBM-SB-FYVE was coupled to beads. Subsequently, beads were incubated with 40 µg MyoVa-GTD and 35 µg Rab11a-Q70L simultaneously for 2 hr. Beads were washed four times with pulldown buffer and bound proteins were eluted by 1x Laemmli buffer and denatured at 95°C for 10 min. Pulled proteins were analyzed by immunoblotting.
GST-pulldown assays were performed as described above with increasing concentrations of GST-MyoVa/b-GTD fusion proteins and 100 nM His6-mCherry-Spir-2-linker peptide in SPECS buffer (1x PBS, 50 mM NaCl). Beads were pelleted and the supernatant was centrifuged for 10 min at 20,000 x g to remove potential debris that could disturb the fluorescence measurement. […] The concentration-dependent binding of MyoVa/b-GTD to the Spir-2-linker was determined by fluorospectrometric analysis using FluoroMax-4 Spectrofluorometer (Horiba Jobin Yvon, Bensheim, Germany). The mCherry red fluorescent protein was excited at 548 nm and the emission at 610 nm was recorded (emission maximum). […]

[4] = system: GST-MyoVb-GTD; assay: GST-pulldown with purified proteins; assay type: binding, Homo sapiens; conditions: purified His6-mCherry-Spir-2-linker mutant L408A,L409A; N = 4
Procedure: as §3

[5] = system: GST-MyoVa-GTD; assay: GST-pulldown with purified proteins; assay type: binding, Mus musculus; conditions: purified His6-mCherry-Spir-2-linker mutant L408A,L409A; N = 4
Procedure: as §3

Molecule	co-elution in gel filtration in words [1]	oligomeric state in solution [2]	Kd [3]	binding to GST-MyoVb-GTD in words [4]	binding to GST-MyoVa-GTD in words [5]
MyoVa-GTD: purified hs-MyoVa-GTD aa 1461 - 1853; in Figure 3E the label stands for AcGFP-mm-MyoVa-GTD donor alone (protein, left off: His6, N-terminal, cleaved) IRPVNIPRKEKDFQGMLEYKKEDEQKLVKNLILELKPRGVAVNLIPGLPAYILFMCVRHADYLNDDQKVRSLLTSTINSIKKVLKKRGDDFETVSFWLSNTCRFLHCLKQYSGEEGFMKHNTSRQNEHCLTNFDLAEYRQVLSDLAIQIYQQLVRVLENILQPMIVSGMLEHETIQGVSGVKPTGLRKRTSSIADEGTYTLDSILRQLNSFHSVMCQHGMDPELIKQVVKQMFYIIGAITLNNLLLRKDMCSWSKGMQIRYNVSQLEEWLRDKNLMNSGAKETLEPLIQAAQLLQVKKKTDDDAEAICSMCNALTTAQIVKVLNLYTPVNEFEERVSVSFIRTIQMRLRDRKDSPQLLMDAKHIFPVTFPFNPSSLALETIQIPASLGLGFIS	co-elution of all three proteins	monomeric in solution	–	–	–
mCherry-Spir2-linker: His6-mCherry-hs-Spir2-linker aa 361 - 519 (protein, left off: His6, N-terminal, kept | mCherry, N-terminal, kept) GEGWAARGFGSLPCILNACSGDAKSTSCINLSVTDAGGSAQRPRPRVLLKAPTLAEMEEMNTSEEEESPCGEVTLKRDRSFSEHDLAQLRSEVASGLQSATHPPGGTEPPRPRAGSAHVWRPGSRDQGTCPASVSDPSHPLLSNRGSSGDRPEASMTPD	co-elution of all three proteins	–	728 ± 113 nM	–	–
Spir-2-linker-LALA: His6-mCherry-hs-Spir2-linker-L408A,L409A (protein, left off: His6, N-terminal, kept | mCherry, N-terminal, kept, His6-mCherry-hs-Spir2-linker-L408A,L409A) GEGWAARGFGSLPCILNACSGDAKSTSCINLSVTDAGGSAQRPRPRVAAKAPTLAEMEEMNTSEEEESPCGEVTLKRDRSFSEHDLAQLRSEVASGLQSATHPPGGTEPPRPRAGSAHVWRPGSRDQGTCPASVSDPSHPLLSNRGSSGDRPEASMTPD	–	–	–	largely impairs binding	largely impairs binding
